Data on four molecules can be found in patent US20140087995A1 (published 2014).

T1: rat amylin receptor (rat calcitonin receptor + rat RAMP 3) (rat, UniProt P32214 25-516; Q9JJ73 23-147)
T1 construct: whole, on cells; Membranes prepared from transiently transfected BHK tk'ts 13 cells (Assay VI); also called rAmylin-R; rAmylin
T1 sequence (looked up) 1: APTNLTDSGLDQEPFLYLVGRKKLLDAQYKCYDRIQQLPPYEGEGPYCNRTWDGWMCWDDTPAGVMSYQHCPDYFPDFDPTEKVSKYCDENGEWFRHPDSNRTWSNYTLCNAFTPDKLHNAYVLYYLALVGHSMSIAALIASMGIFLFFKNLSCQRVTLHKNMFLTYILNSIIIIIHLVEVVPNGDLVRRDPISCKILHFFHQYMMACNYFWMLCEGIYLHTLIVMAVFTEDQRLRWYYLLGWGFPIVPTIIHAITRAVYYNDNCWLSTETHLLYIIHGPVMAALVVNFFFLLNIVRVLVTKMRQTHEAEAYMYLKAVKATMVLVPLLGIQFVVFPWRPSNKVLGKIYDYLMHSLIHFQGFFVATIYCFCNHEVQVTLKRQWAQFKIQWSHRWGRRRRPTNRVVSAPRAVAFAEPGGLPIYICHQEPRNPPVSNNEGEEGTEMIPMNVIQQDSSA
T1 sequence (looked up) 2: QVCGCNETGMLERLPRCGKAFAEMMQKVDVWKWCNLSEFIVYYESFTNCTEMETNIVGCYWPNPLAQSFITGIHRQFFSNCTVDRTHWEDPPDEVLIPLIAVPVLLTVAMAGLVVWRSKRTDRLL

T2: human calcitonin receptor (human, UniProt P30988 25-474)
T2 construct: whole, on cells; Membranes prepared from a stably transfected BHK cell line (Assay VII); also called hCTR; hCT
T2 sequence (looked up): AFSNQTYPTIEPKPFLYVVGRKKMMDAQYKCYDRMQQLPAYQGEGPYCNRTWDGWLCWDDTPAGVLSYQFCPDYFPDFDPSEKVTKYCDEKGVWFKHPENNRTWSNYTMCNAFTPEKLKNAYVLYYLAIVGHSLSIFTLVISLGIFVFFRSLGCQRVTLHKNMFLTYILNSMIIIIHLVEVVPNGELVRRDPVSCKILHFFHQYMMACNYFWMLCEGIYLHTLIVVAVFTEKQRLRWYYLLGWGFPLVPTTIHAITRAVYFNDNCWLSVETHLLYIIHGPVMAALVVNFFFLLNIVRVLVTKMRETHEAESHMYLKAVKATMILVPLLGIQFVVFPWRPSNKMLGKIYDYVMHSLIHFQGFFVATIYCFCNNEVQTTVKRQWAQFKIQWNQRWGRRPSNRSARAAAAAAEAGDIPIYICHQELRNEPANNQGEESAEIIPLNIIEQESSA

T3: rat calcitonin receptor (rat, UniProt P32214 25-516)
T3 construct: whole, on cells; Membranes prepared from transiently transfected BHK tk'ts 13 cells (Assay VIII); also called rCTR; rCT
T3 sequence (looked up): T1 sequence (looked up) 1

B1: N^ε1-[2-[2-[2-[[(4S)-4-carboxy-4-(19-carboxynonadecanoylamino)butanoyl]amino]ethoxy]ethoxy]acetyl]-[Arg17,Pro21,Pro27,His34]-h-amylin (peptide)
peptide: K([AEEA-γGlu-C20 diacid])CNTATCATQRLANFLRHSSPNFGAIPSSTNVGHNTY-NH2
modifications: disulfide 2-7; N-terminus assumed
SMILES: CC[C@H](C)[C@H](NC(=O)[C@H](C)NC(=O)CNC(=O)[C@H](Cc1ccccc1)NC(=O)[C@H](CC(N)=O)NC(=O)[C@@H]1CCCN1C(=O)[C@H](CO)NC(=O)[C@H](CO)NC(=O)[C@H](Cc1c[nH]cn1)NC(=O)[C@H](CCCNC(=N)N)NC(=O)[C@H](CC(C)C)NC(=O)[C@H](Cc1ccccc1)NC(=O)[C@H](CC(N)=O)NC(=O)[C@H](C)NC(=O)[C@H](CC(C)C)NC(=O)[C@H](CCCNC(=N)N)NC(=O)[C@H](CCC(N)=O)NC(=O)[C@@H](NC(=O)[C@H](C)NC(=O)[C@@H]1CSSC[C@H](NC(=O)[C@@H](N)CCCCNC(=O)COCCOCCNC(=O)CC[C@H](NC(=O)CCCCCCCCCCCCCCCCCCC(=O)O)C(=O)O)C(=O)N[C@@H](CC(N)=O)C(=O)N[C@@H]([C@@H](C)O)C(=O)N[C@@H](C)C(=O)N[C@@H]([C@@H](C)O)C(=O)N1)[C@@H](C)O)C(=O)N1CCC[C@H]1C(=O)N[C@@H](CO)C(=O)N[C@@H](CO)C(=O)N[C@H](C(=O)N[C@@H](CC(N)=O)C(=O)N[C@H](C(=O)NCC(=O)N[C@@H](Cc1c[nH]cn1)C(=O)N[C@@H](CC(N)=O)C(=O)N[C@H](C(=O)N[C@@H](Cc1ccc(O)cc1)C(N)=O)[C@@H](C)O)C(C)C)[C@@H](C)O
notes: Analogue of human amylin; also called compound 76
B2: N^ε1-[2-[2-[2-[[(4S)-4-carboxy-4-(19-carboxynonadecanoylamino)butanoyl]amino]ethoxy]ethoxy]acetyl]-[Arg17,Pro21,Pro27,Pro29,Pro31]-h-amylin (peptide)
peptide: K([AEEA-γGlu-C20 diacid])CNTATCATQRLANFLRHSSPNFGAIPSPTPVGSNTY-NH2
modifications: disulfide 2-7; N-terminus assumed
SMILES: CC[C@H](C)[C@H](NC(=O)[C@H](C)NC(=O)CNC(=O)[C@H](Cc1ccccc1)NC(=O)[C@H](CC(N)=O)NC(=O)[C@@H]1CCCN1C(=O)[C@H](CO)NC(=O)[C@H](CO)NC(=O)[C@H](Cc1c[nH]cn1)NC(=O)[C@H](CCCNC(=N)N)NC(=O)[C@H](CC(C)C)NC(=O)[C@H](Cc1ccccc1)NC(=O)[C@H](CC(N)=O)NC(=O)[C@H](C)NC(=O)[C@H](CC(C)C)NC(=O)[C@H](CCCNC(=N)N)NC(=O)[C@H](CCC(N)=O)NC(=O)[C@@H](NC(=O)[C@H](C)NC(=O)[C@@H]1CSSC[C@H](NC(=O)[C@@H](N)CCCCNC(=O)COCCOCCNC(=O)CC[C@H](NC(=O)CCCCCCCCCCCCCCCCCCC(=O)O)C(=O)O)C(=O)N[C@@H](CC(N)=O)C(=O)N[C@@H]([C@@H](C)O)C(=O)N[C@@H](C)C(=O)N[C@@H]([C@@H](C)O)C(=O)N1)[C@@H](C)O)C(=O)N1CCC[C@H]1C(=O)N[C@@H](CO)C(=O)N1CCC[C@H]1C(=O)N[C@H](C(=O)N1CCC[C@H]1C(=O)N[C@H](C(=O)NCC(=O)N[C@@H](CO)C(=O)N[C@@H](CC(N)=O)C(=O)N[C@H](C(=O)N[C@@H](Cc1ccc(O)cc1)C(N)=O)[C@@H](C)O)C(C)C)[C@@H](C)O
notes: Analogue of human amylin; also called compound 54
B3: N^ε1-[2-[2-[2-[[(4S)-4-carboxy-4-(19-carboxynonadecanoylamino)butanoyl]amino]ethoxy]ethoxy]acetyl]-[Arg17,Pro21,Pro27,Pro28,Pro34]-h-amylin (peptide)
peptide: K([AEEA-γGlu-C20 diacid])CNTATCATQRLANFLRHSSPNFGAIPPSTNVGPNTY-NH2
modifications: disulfide 2-7; N-terminus assumed
SMILES: CC[C@H](C)[C@H](NC(=O)[C@H](C)NC(=O)CNC(=O)[C@H](Cc1ccccc1)NC(=O)[C@H](CC(N)=O)NC(=O)[C@@H]1CCCN1C(=O)[C@H](CO)NC(=O)[C@H](CO)NC(=O)[C@H](Cc1c[nH]cn1)NC(=O)[C@H](CCCNC(=N)N)NC(=O)[C@H](CC(C)C)NC(=O)[C@H](Cc1ccccc1)NC(=O)[C@H](CC(N)=O)NC(=O)[C@H](C)NC(=O)[C@H](CC(C)C)NC(=O)[C@H](CCCNC(=N)N)NC(=O)[C@H](CCC(N)=O)NC(=O)[C@@H](NC(=O)[C@H](C)NC(=O)[C@@H]1CSSC[C@H](NC(=O)[C@@H](N)CCCCNC(=O)COCCOCCNC(=O)CC[C@H](NC(=O)CCCCCCCCCCCCCCCCCCC(=O)O)C(=O)O)C(=O)N[C@@H](CC(N)=O)C(=O)N[C@@H]([C@@H](C)O)C(=O)N[C@@H](C)C(=O)N[C@@H]([C@@H](C)O)C(=O)N1)[C@@H](C)O)C(=O)N1CCC[C@H]1C(=O)N1CCC[C@H]1C(=O)N[C@@H](CO)C(=O)N[C@H](C(=O)N[C@@H](CC(N)=O)C(=O)N[C@H](C(=O)NCC(=O)N1CCC[C@H]1C(=O)N[C@@H](CC(N)=O)C(=O)N[C@H](C(=O)N[C@@H](Cc1ccc(O)cc1)C(N)=O)[C@@H](C)O)C(C)C)[C@@H](C)O
notes: Analogue of human amylin; also called compound 55
B4: N^ε1-[2-[2-[2-[[(4S)-4-carboxy-4-(19-carboxynonadecanoylamino)butanoyl]amino]ethoxy]ethoxy]acetyl]-[Arg17,Pro21,Pro27,Pro28,Pro31]-h-amylin (peptide)
peptide: K([AEEA-γGlu-C20 diacid])CNTATCATQRLANFLRHSSPNFGAIPPSTPVGSNTY-NH2
modifications: disulfide 2-7
notes: Analogue of human amylin; also called compound 53

Numbered stars: 1 amine (or outer) side, 2 acyl side, 3 side chain; on linkers, the order of the positions; unused ones are H or OH. Bridge positions count the residues as written; N and C are the ends. Side chains are listed from the residue outwards. Ends that are not written are not given here. * marks the point of attachment. C20 diacid = O=C(O)CCCCCCCCCCCCCCCCCCC(=O)*; γGlu = O=C(O)[C@H](CCC(=O)[*:2])N[*:1]; AEEA = NCCOCCOCC(=O)O

The target in one assay is T1, rat amylin receptor (rat calcitonin …). Briefly: SPA competition vs 125I-rat amylin, membranes of BHK cells with rat calcitonin receptor + rat RAMP3 (Assay VI). As to the method:
The binding assay was performed using scintillation proximity assay (SPA) beads (RPNQ0001) from PerkinElmer and cell membranes from the Amylin 3(a)/CRE-luc cells (as described in Assay (II)) were used. Membranes were prepared in the following way; the cells were rinsed with PBS and incubated with Versene for approximately 5 min before harvesting. The cells were flushed with PBS and the cell-suspension was centrifuged for 5 min at 1000 rpm. Cells were homogenized (ultrathurrax) in a buffer containing 20 mM Na-HEPES and 10 mM EDTA (pH 7.4) and centrifuged at 20.000 rpm for 15 min. The resulting pellet was resuspended, homogenized and centrifuged (20.000 rpm, 15 min) in a buffer containing 20 mM Na-HEPES and 0.1 mM EDTA (pH 7.4, buffer 2). The resulting pellet was resuspended in buffer 2 and protein concentration was measured (BCA protein Assay, Pierce). The homogenate was kept cold during the whole procedure. The membranes were kept at −80° C. until use. The assay was performed in a 384 well Optiplate (PerkinElmer) in a total volume of 40 ul. Membranes were mixed with SPA beads. Final concentration of membranes 35 ng/μL final and SPA beads was 0.05 mg/well. Test-compounds were dissolved in DMSO and further diluted in assay buffer (50 mM Hepes, pH 7.4, 1 mM CaCl2, 5 mM MgCl₂, 0.1% OA and 0.02% Tween20). […] The final mixture was incubated with shaking at 400 rpm for 120 min at 25° C. prior to centrifugation (1500 rpm, 10 min). Samples were analyzed on TopCounter™ (Packard). The IC₅₀ was calculated using (one site binding competition analysis) GraphPad Prism5 as a measure of receptor affinity.
Cells were grown in DMEM with 10% FBS and 1% Pen/Strep. Approximately 48 hours after transfection, the cells were harvested and membranes were prepared.
By IC50 is commonly meant the concentration that inhibits the measured activity by half. In the case of B1, the IC50 is 0.686 nM.

Turning to B2, the IC50 was determined as 0.049 nM.

As for B3, the IC50 came to 0.081 nM.

In the case of B4, the half-inhibitory concentration (IC50) was 0.084 nM.

In the next assay the target is T2, human calcitonin receptor. Nature of the assay: ratio of binding IC50s: human calcitonin receptor / human amylin receptor (reference). The protocol: The resulting pellet was resuspended, homogenized and centrifuged (20.000 rpm, 15 min) in a buffer containing 20 mM Na-HEPES and 0.1 mM EDTA (pH 7.4, buffer 2). The resulting pellet was resuspended in buffer 2 and protein concentration was measured (BCA protein Assay, Pierce). The homogenate was kept cold during the whole procedure. The membranes were kept at −80° C. until use. The assay was performed in a 384 well Optiplate (PerkinElmer) in a total volume of 40 ul. Membranes were mixed with SPA beads. Final concentration of membranes 35 ng/μL final and SPA beads was 0.05 mg/well. Test-compounds were dissolved in DMSO and further diluted in assay buffer (50 mM Hepes, pH 7.4, 1 mM CaCl2, 5 mM MgCl₂, 0.1% OA and 0.02% Tween20). […] The final mixture was incubated with shaking at 400 rpm for 120 min at 25° C. prior to centrifugation (1500 rpm, 10 min). Samples were analyzed on TopCounter™ (Packard). The IC₅₀ was calculated using (one site binding competition analysis) GraphPad Prism5 as a measure of receptor affinity.
Membranes were prepared in the following way; the cells were rinsed with PBS and incubated with Versene for approximately 5 min before harvesting. The cells were flushed with PBS and the cell-suspension was centrifuged for 5 min at 1000 rpm. Cells were homogenized (Ultrathurrax) in a buffer containing 20 mM Na-HEPES and 10 mM EDTA (pH 7.4) and centrifuged at 20.000 rpm for 15 min. The resulting pellet was resuspended, homogenized and centrifuged (20.000 rpm, 15 min) in a buffer containing 20 mM Na-HEPES and 0.1 mM EDTA (pH 7.4, buffer 2). The resulting pellet was resuspended in buffer 2 and protein concentration was measured (BCA protein Assay, Pierce). The homogenate was kept cold during the whole procedure. The membranes were kept at −80° C. until use. Assay was performed in a 384 well Optiplate (PerkinElmer) in a total volume of 40 ul. Membranes were mixed with SPA beads.
With B1, the “Ratio hCT/hAmylin binding” value came to 80.

Regarding B2, the “Ratio hCT/hAmylin binding” value turned out to be 146.

Take B3: the “Ratio hCT/hAmylin binding” value came out at 51.8.

For the molecule B4, the “Ratio hCT/hAmylin binding” value was 104.

The next assay has as its target T3, rat calcitonin receptor. Briefly: ratio of binding IC50s: rat calcitonin receptor / rat amylin receptor (reference).
With B1, the “Ratio rCT/rAmylin binding” value worked out at 56.8.

Consider B2, for which the “Ratio rCT/rAmylin binding” value was determined as 179.

Take B3: the “Ratio rCT/rAmylin binding” value is 77.2.

B4: the “Ratio rCT/rAmylin binding” value was found to be 130.

For the next assay, the target named is T3, rat calcitonin receptor. Briefly: SPA competition vs 125I-calcitonin, membranes of BHK cells with rat calcitonin receptor (Assay VIII).
As for B1, the IC50 was found to be 38.9 nM.

As to B2, the IC50 amounted to 8.79 nM.

In the case of B3, the IC50 turned out to be 6.25 nM.

As to B4, the IC50 came to 10.9 nM.
